Assays:
Experiment in all cases: flow cytometry, IgG on cells expressing the mutant
human CD33 variant P48G = human CD33 variant P48G (human, UniProt P20138 18-364)
Experimental: (§1) An alanine scan on human CD33 was performed to the determine the residues on CD33 that are involved in binding to the antibodies investigated. […] Briefly, a mutation library of CD33 was created by high-throughput, site-directed mutagenesis. Each residue was individually mutated to alanine, with alanine codons mutated to serine. The mutant library was arrayed in 384-well microplates and transiently transfected into HEK293-T. Following transfection, cells were incubated with the indicated antibodies (IgG or Fab) at concentrations pre-determined using an independent immunofluorescence titration curve on wild type CD33. […] Binding of each antibody to each mutant clone was determined in duplicates. For each point, background fluorescence was subtracted from the raw data, which were then normalized to antibody reactivity with wild type CD33.
(§2) Antibodies were screened for binding to the human CD33 variants in IgG format. […] For each mutation, background fluorescence was subtracted from the raw data, which were then normalized to antibody reactivity with wild-type CD33.

human CD33 variant M120L = human CD33 variant M120L (human, UniProt P20138 18-364)
Experimental: as §1, §2

human CD33 variant Y49P = human CD33 variant Y49P (human, UniProt P20138 18-364)
Experimental: as §1, §2

human CD33 variant I47E = human CD33 variant I47E (human, UniProt P20138 18-364)
Experimental: as §1, §2

human CD33 variant K52T = human CD33 variant K52T (human, UniProt P20138 18-364)
Experimental: as §1, §2

human CD33 variant Y50G = human CD33 variant Y50G (human, UniProt P20138 18-364)
Experimental: as §1, §2

human CD33 variant Y49C = human CD33 variant Y49C (human, UniProt P20138 18-364)
Chain of human CD33 variant Y49C (P20138 18-364 Y49C limits assumed): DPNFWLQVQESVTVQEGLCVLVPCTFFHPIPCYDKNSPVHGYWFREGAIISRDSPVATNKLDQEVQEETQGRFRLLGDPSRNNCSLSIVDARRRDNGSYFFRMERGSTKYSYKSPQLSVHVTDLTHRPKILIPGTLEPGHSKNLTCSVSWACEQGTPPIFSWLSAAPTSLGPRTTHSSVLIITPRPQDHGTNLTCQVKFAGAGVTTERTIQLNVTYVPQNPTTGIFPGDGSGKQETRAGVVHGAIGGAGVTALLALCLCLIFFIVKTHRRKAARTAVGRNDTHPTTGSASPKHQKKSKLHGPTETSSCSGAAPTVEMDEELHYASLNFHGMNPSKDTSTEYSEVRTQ
Experimental: as §1, §2

human CD33 variant Y50H = human CD33 variant Y50H (human, UniProt P20138 18-364)
Experimental: as §1, §2

human CD33 variant P48N = human CD33 variant P48N (human, UniProt P20138 18-364)
Chain of human CD33 variant P48N (P20138 18-364 P48N limits assumed): as the sequence (P20138 18-364 Y49C limits assumed) above, with P31N, C32Y counted along it
Experimental: as §1, §2

human CD33 variant P48H = human CD33 variant P48H (human, UniProt P20138 18-364)
Experimental: as §1, §2

human CD33 variant Y127E = human CD33 variant Y127E (human, UniProt P20138 18-364)
Experimental: as §1, §2

human CD33 variant Y129S = human CD33 variant Y129S (human, UniProt P20138 18-364)
Experimental: as §1, §2

human CD33 variant D51N = human CD33 variant D51N (human, UniProt P20138 18-364)
Chain of human CD33 variant D51N (P20138 18-364 D51N limits assumed): as the sequence (P20138 18-364 Y49C limits assumed) above, with C32Y, D34N counted along it
Experimental: as §1, §2

human CD33 variant Y50S = human CD33 variant Y50S (human, UniProt P20138 18-364)
Chain of human CD33 variant Y50S (P20138 18-364 Y50S limits assumed): as the sequence (P20138 18-364 Y49C limits assumed) above, with C32Y, Y33S counted along it
Experimental: as §1, §2

human CD33 variant P48Q = human CD33 variant P48Q (human, UniProt P20138 18-364)
Experimental: as §1, §2

human CD33 variant D51K = human CD33 variant D51K (human, UniProt P20138 18-364)
Experimental: as §1, §2

human CD33 variant M120V = human CD33 variant M120V (human, UniProt P20138 18-364)
Chain of human CD33 variant M120V (P20138 18-364 M120V limits assumed): as the sequence (P20138 18-364 Y49C limits assumed) above, with C32Y, M103V counted along it
Experimental: as §1, §2

human CD33 variant R122I = human CD33 variant R122I (human, UniProt P20138 18-364)
Chain of human CD33 variant R122I (P20138 18-364 R122I limits assumed): as the sequence (P20138 18-364 Y49C limits assumed) above, with C32Y, R105I counted along it
Experimental: as §1, §2

human CD33 variant Y49V = human CD33 variant Y49V (human, UniProt P20138 18-364)
Experimental: as §1, §2

human CD33 variant I47N = human CD33 variant I47N (human, UniProt P20138 18-364)
Experimental: as §1, §2

human CD33 variant K52S = human CD33 variant K52S (human, UniProt P20138 18-364)
Chain of human CD33 variant K52S (P20138 18-364 K52S limits assumed): as the sequence (P20138 18-364 Y49C limits assumed) above, with C32Y, K35S counted along it
Experimental: as §1, §2

human CD33 variant P48S = human CD33 variant P48S (human, UniProt P20138 18-364)
Chain of human CD33 variant P48S (P20138 18-364 P48S limits assumed): as the sequence (P20138 18-364 Y49C limits assumed) above, with P31S, C32Y counted along it
Experimental: as §1, §2

human CD33 variant R122S = human CD33 variant R122S (human, UniProt P20138 18-364)
Experimental: as §1, §2

human CD33 variant P48F = human CD33 variant P48F (human, UniProt P20138 18-364)
Experimental: as §1, §2

human CD33 variant Y49T = human CD33 variant Y49T (human, UniProt P20138 18-364)
Experimental: as §1, §2

human CD33 variant Y50R = human CD33 variant Y50R (human, UniProt P20138 18-364)
Chain of human CD33 variant Y50R (P20138 18-364 Y50R limits assumed): as the sequence (P20138 18-364 Y49C limits assumed) above, with C32Y, Y33R counted along it
Experimental: as §1, §2

human CD33 variant Y50P = human CD33 variant Y50P (human, UniProt P20138 18-364)
Chain of human CD33 variant Y50P (P20138 18-364 Y50P limits assumed): as the sequence (P20138 18-364 Y49C limits assumed) above, with C32Y, Y33P counted along it
Experimental: as §1, §2

human CD33 variant R122T = human CD33 variant R122T (human, UniProt P20138 18-364)
Experimental: as §1, §2

human CD33 variant K52Y = human CD33 variant K52Y (human, UniProt P20138 18-364)
Experimental: as §1, §2

human CD33 variant Y49G = human CD33 variant Y49G (human, UniProt P20138 18-364)
Chain of human CD33 variant Y49G (P20138 18-364 Y49G limits assumed): as the sequence (P20138 18-364 Y49C limits assumed) above, with C32G counted along it
Experimental: as §1, §2

human CD33 variant I47P = human CD33 variant I47P (human, UniProt P20138 18-364)
Chain of human CD33 variant I47P (P20138 18-364 I47P limits assumed): as the sequence (P20138 18-364 Y49C limits assumed) above, with I30P, C32Y counted along it
Experimental: as §1, §2

human CD33 variant Y49S = human CD33 variant Y49S (human, UniProt P20138 18-364)
Experimental: as §1, §2

human CD33 variant I47R = human CD33 variant I47R (human, UniProt P20138 18-364)
Experimental: as §1, §2

human CD33 variant Y50I = human CD33 variant Y50I (human, UniProt P20138 18-364)
Experimental: as §1, §2

human CD33 variant Y50L = human CD33 variant Y50L (human, UniProt P20138 18-364)
Experimental: as §1, §2

human CD33 variant P48T = human CD33 variant P48T (human, UniProt P20138 18-364)
Experimental: as §1, §2

Chain of human CD33 variant I47E (P20138 18-364 I47E limits assumed): as the sequence (P20138 18-364 Y49C limits assumed) above, with I30E, C32Y counted along it
Chain of human CD33 variant Y49P (P20138 18-364 Y49P limits assumed): as the sequence (P20138 18-364 Y49C limits assumed) above, with C32P counted along it

B1: Refmab #1 (antibody, human IgG1, V domains shown)
VH: EVQLVQSGAEVKKPGSSVKVSCKASGYTITDSNIHWVRQAPGQSLEWIGYIYPYNGGTDYNQKFKNRATLTVDNPTNTAYMELSSLRSEDTAFYYCVNGNPWLAYWGQGTLVTVSS
VL: DIQLTQSPSTLSASVGDRVTITCRASESLDNYGIRFLTWFQQKPGKAPKLLMYAASNQGSGVPSRFSGSGSGTEFTLTISSLQPDDFATYYCQQTKEVPWSFGQGTKVEVK
notes: Tested in IgG format; human IgG1 (Absolute Antibody hP67.6, Cat. No. Ab00283-10.0); also called hP67.6
With B1 the “Mean % WT Binding” value (human CD33 variant P48G) was 95 % of WT, the “Mean % WT Binding” value (human CD33 variant M120L) was 98.4 % of WT and the “Mean % WT Binding” value (human CD33 variant Y49P) was 92.5 % of WT. For the same binder, the “Mean % WT Binding” value (human CD33 variant I47E) was 101 % of WT, the “Mean % WT Binding” value (human CD33 variant K52T) was 102 % of WT and the “Mean % WT Binding” value (human CD33 variant Y50G) was 92.8 % of WT. The “Mean % WT Binding” value (human CD33 variant Y49C) was 67.2 % of WT, the “Mean % WT Binding” value (human CD33 variant Y50H) was 103 % of WT and the “Mean % WT Binding” value (human CD33 variant P48N) was 100 % of WT. For the same binder, the “Mean % WT Binding” value (human CD33 variant P48H) was 97.4 % of WT, the “Mean % WT Binding” value (human CD33 variant Y127E) was 79.2 % of WT and the “Mean % WT Binding” value (human CD33 variant Y129S) was 68.7 % of WT. For the same binder, the “Mean % WT Binding” value (human CD33 variant D51N) was 99 % of WT, the “Mean % WT Binding” value (human CD33 variant Y50S) was 101 % of WT and the “Mean % WT Binding” value (human CD33 variant P48Q) was 120 % of WT. For the same binder, the “Mean % WT Binding” value (human CD33 variant D51K) was 90.7 % of WT, the “Mean % WT Binding” value (human CD33 variant M120V) was 98.7 % of WT and the “Mean % WT Binding” value (human CD33 variant R122I) was 110 % of WT. The “Mean % WT Binding” value (human CD33 variant Y49V) was 101 % of WT, the “Mean % WT Binding” value (human CD33 variant I47N) was 87.8 % of WT and the “Mean % WT Binding” value (human CD33 variant K52S) was 84.3 % of WT. For the same binder, the “Mean % WT Binding” value (human CD33 variant P48S) was 97.5 % of WT, the “Mean % WT Binding” value (human CD33 variant R122S) was 111 % of WT and the “Mean % WT Binding” value (human CD33 variant P48F) was 94.6 % of WT. The “Mean % WT Binding” value (human CD33 variant Y49T) was 108 % of WT, the “Mean % WT Binding” value (human CD33 variant Y50R) was 94.1 % of WT and the “Mean % WT Binding” value (human CD33 variant Y50P) was 98.1 % of WT. The “Mean % WT Binding” value (human CD33 variant R122T) was 113 % of WT, the “Mean % WT Binding” value (human CD33 variant K52Y) was 45 % of WT and the “Mean % WT Binding” value (human CD33 variant Y49G) was 107 % of WT. For the same binder, the “Mean % WT Binding” value (human CD33 variant I47P) was 84.5 % of WT, the “Mean % WT Binding” value (human CD33 variant Y49S) was 107 % of WT and the “Mean % WT Binding” value (human CD33 variant I47R) was 96.1 % of WT. The “Mean % WT Binding” value (human CD33 variant Y50I) was 99.2 % of WT, the “Mean % WT Binding” value (human CD33 variant Y50L) was 109 % of WT and the “Mean % WT Binding” value (human CD33 variant P48T) was 106 % of WT.

Source: patent US20260242735A1 (UNIVERSIT T BASEL, published 2026)
